Changes are numbered by the printed parent chain. Names and notes keep the numbering of the source.
B1: PCNA-D17K (recombinant, crystallised) (natural protein, S. cerevisiae)
chain: MLEAKFEEASLFKRIIKGFKDCVQLVNFQCKEDGIIAQAVDDSRVLLVSLEIGVEAFQEYRCDHPVTLGMDLTSLSKILRCGNNTDTLTLIADNTPDSIILLFEDTKKDRIAEYSLKLMDIDADFLKIEELQYDSTLSLPSSEFSKIVRDLSQLSDSINIMITKETIKFVADGDIGSGSVIIKPFVDMEHPETSIKLEMDQPVDLTFGAKYLLDIIKGSSLSDRVGIRLSSEAPALFQFDLKSGFLQFFLAPKFNDEE
notes: PCNA (POL30), S. cerevisiae, with D17K; modified pET-28 vector with an N-terminal 6-His tag and a PreScission Protease cleavage site; also called PCNA mutant D17K
B2: PCNA-D21K (recombinant, crystallised) (natural protein, S. cerevisiae)
chain: B1 chain with K17D, D21K
notes: PCNA (POL30), S. cerevisiae, with D21K; modified pET-28 vector with an N-terminal 6-His tag and a PreScission Protease cleavage site; also called PCNA mutant D21K

Target: the molecule itself
Test: crystal structure; hanging drop, room temperature; 50 mM sodium citrate pH 5.3, 1.7 M (NH4)2SO4 for PCNA-D17K; 50 mM sodium citrate pH 5.6, 2 M (NH4)2SO4 for PCNA-D21K; molecular replacement with wild-type PCNA (PDB 4YHR)

| Protein | binding result |
| --- | --- |
| B1 | binds |
| B2 | binds |

Reference: paper PMC6648347, “Effective mismatch repair depends on timely control of PCNA retention on DNA by the Elg1 complex” (Nucleic Acids Research, 2019)
